Experimental data as given in a protein production outcome set (Wang et al. 2014).

Experiment: label from the status in PepcDB records
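Further: failed if final PepcDB status was selected cloned or expressed and not failed if soluble or beyond.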

| Sequence | protein production |
| --- | --- |
| FGVWVLVPRSFPRCVWFQRSMAVVIRLQGLPIVAGTMDIRHFFSGLTIPDGGVHIVGGELGEAFIVFATDEDARLGMMRTGGTIKGSKVTLLLSSKTEMQNMIELSRRRFETANLDIPPANASRSGPPPSSGMSSRVNLPTTVSNFNNPSPSVVTATTSVHESNKNIQTFSTASVGTAPPNMGASFGSPTFSSTVPSTASPMNTVPPPPIPPIPAMPSLPPMPSIPPIPVPPPVPTLPPVPPVPPIPPVPSVPPMTPLPPMSGMPPLNPPPVAPLPAGMNGSGAPMNLNNNLNPMFLGPLNPVNPIQMNSQSSVKPLPINPDDLYVSVHGMPFSAMENDVRDFFHGLRVDAVHLLKDHVGRNNGNGLVKFLSPQDTFEALKRNRMLMIQRYVEVSPATERQWVAAGGHITFKQNMGPSGQTHPPPQTLPRSKSPSGQKRSRSRSPHEAGFCVYLKGLPFEAENKHVIDFFKKLDIVEDSIYIAYGPNGKATGEGFVEFRNEADYKAALCRHKQYMGNRFIQVHPITKKGMLEKIDMIRKRLQNFSYDQREMILNPEGDVNSAKVCAHITNIPFSITKMDVLQFLEGIPVDENAVHVLVDNNGQGLGQALVQFKNEDDARKSERLHRKKLNGREAFVHVVTLEDMREIEKNPPAQGKKGLKMPVPGNPAVPGMPNAGLPGVGLPSAGLPGAGLPSTGLPGSAITSAGLPGAGMPSAGIPSAGGEEHAFLTVGSKEANNGPPFNFPGNFGGSNAFGPPIPPPGLGGGAFGDARPGMPSVGNSGLPGLGLDVPGFGGGPNNLSGPSGFGGGPQNFGNGPGSLGGPPGFGSGPPGLGSAPGHLGGPPAFGPGPGPGPGPGPIHIGGPPGFASSSGKPGPTVIKVQNMPFTVSIDEILDFFYGYQVIPGSVCLKYNEKGMPTGEAMVAFESRDEATAAVIDLNDRPIGSRKVKLVLG | not failed |
| MTYKITTSESKKEYLYMGSGDTRGESSLVAKPIEIILNKLPHAILAQQQFQKYITSPIYRYLSKLLLFREVAWPESTKDTQKGQVGIFSFQNNYADSATTFRILAHLDEHGYPLPNGAAEKNLPSLFEGFKATVSIIQQRLLLDNVDGATNSDKEKYVQLPDINTGFVNKTYSRIDLTHLLEDVETNVENLSINKTLEMDELTRLDSMINELESRKLKILERVKHIDSKSTNLENDVTLIKDRINFIEEYNLEADREQSLRKQMEEERSSEASSFTQNEEAISSLCDVESKDTRLKDFYKMPHEKSHDKNRQIISETYSRNTTAFRMTIPHGEHGNSITALDFDTPWGTLCSSSYQDRIVKVWDLNHGIQVGELPGHLATVNCMQIDKKNYNMLITGSKDATLKLWDLNLSREIYLDHSPLKEKTEEIVTPCIHNFELHKDEITALSFDSEALVSGSRDKKIFHWDLTTGKCIQQLDLIFTPTHSDIKMPARSLNNGACLLGTEAPMIGALQCYNSALATGTKDGIVRLWDLRVGKPVRLLEGHTDGITSLKFDSEKLVTGSMDNSVRIWDLRTSSILDVIAYDLPVSSLDFDGKLITVGANEGGVNVFNMERDEHWMTPEPPHSLDGDELSRRIAIVKYKDGFLINGHNDGDINVWTL | failed |
| EAKAKANTTRSLQALINLQPQQATVITEQGDQQITVEQITLGMKLRIKPGEKVPVDGVVIQGESYIDESMLTGEPVPVLKAQEAQVSAGTLNTDGALIIEATGIGANTMLARIIRMVRTAQSSKPAIAKLADQ | failed |
| MALRLALSLCVYLLFTQGAQGNTDDFDCVEIYKQPAFQHPLLKDHKIQETFSLDGKIERSNKYNTKEHCPKGTVAILRQRNVSKGVHLNTAEYSGQHFATIETILDGSIYRGAEADISIHDLKLQNNQYSKSQIWLENGPPGQLNSIQAGLAVHPRLYGDSVTRFTIYWTGDGYQKTGCYNTQCPGFVVVSRNSRIGSGFWGTSVYGKTSLTFKLQVFQDGFSGNWALKMFDEVIGYWPKELFSHLNNGASLVRYGGNTFESPDGISPPMGNGFFPVADFKKTAHFNNVVVINSDYKRVYIEGRKIRLYVDSYNCFRATYWGYTKSTGEAFSFGGPGGNCGF | failed |
| MNVYDLIAEHYSGLFPLETEKLEFIQHLCPLPGRLCDAGCATGELVMGLYQKGYDICGLDLNEKMIGIAEKKASCIRKTGELMFYHADIADIMQFGKFKGVLCFGNTLPHLRDEEALRRFFGSVYRSLEEHGIFIVEVLNYDRILDDKKMDFKDKETKDFIFKRNYDFLPGGNIRFTIEFTDKQRSTVGSDFTVLHPLKRQMLLALFKQTGFKSVSAYSDYSFTESRAEDYAVVYTANK | failed |
| MNKWVITSLFAISTLSASVASALEVRYMATPQQSTWQMATNTPLECRLVHPIPNYGDAEFSSRAGKKINLDFELKMRRPMGDTRNVSLVSMPPVWRPGEGADRITNLQFFKQFDGYIGGQTAWSLLSELEKGRYPTFSYQDWQSRDQRIEVALSSVLFQQPYNEFSDCISKLLPYSFEDISFTILHYDQGTSVELNKASQKRLAQIAEYVRYNQDIDLVLVSTYTDSTDTNNNSQNLSEQRAEVLREYFKSIGLPEDRIQVQGYGKRRPIADNASPIGKDKNRRVVISLGRTQV | failed |
| MSLAEKIKVLIVDDQVTSRLLLGDALQQLGFKQITAAGDGEQGMKIMAQNPHHLVISDFNMPKMDGLGLLQAVRANPATKKAAFIILTAQGDRALVQKAAALGANNVLAKPFTIEKMKAAIEAVFGALK | not failed |
| MNTSFIKTLMTTNAGFAALALRIPTAIIFIAHGAQKLFGSFGGYGLEGTGQWMASIGLEPGYQLALLAGSAEFFGGIALLIGLLVRPAALMLSVTMVVAIFSVHFANGLFMTNNGYEFALALLAVSFSLMFSGAGKLSLDNLLAEKLA | failed |
| MIGAVIEAGVGITAALISLIEDKQNFLKKYEVSLIILPILVIFFHSMLIVPIYVFSIISGTYLYSKKFYYPFLLLFVSVFLIYIVYGINYPWKSTDIAISAGMIVVMVFDSREKEYVKQNEMNRGTDRKKEIRRDYVQILAGAVIILLIYYYGIDVSRILVTFGSLVLYVTGNFLAGRPDLLLGKLLNSLERSSTKLGIGSLWFASGILIAYSLHDSTAVVMMIVFSIAVGDSLATIIGTSVSSPKLPINRKKSAAGSIAFFAASAAFAIFVLGYAGLFYAAVATITEAVSGFPLDDNLTVPFILSILAYVSKML | failed |
| MFEGERHMFDVQREELIWGDRKLVLETGKTARQADGSVVATYGETTVLATVVAGKEPKAGIDFLPLTVNYQERAYAAGRIPGGYFKREGRPSEKETLVSRLIDRPIRPLFVEGWRNDTQVVVTVLSHDLENDPDIVAMVAASAALTLSGVPFMGPIGAARVGYLNGGYKLNPLVTEIAESTLDLVVAGTQDAVLMVESEAKELSEDVMLGAVMFGHKHFQPVIEAIIRLAEKAAKEPRDFTPPENADVEAAVLAVAETELREAYKKTVKQERYAAVDAVKAKVVAALCPAEGEQKFSPEKVKAAFKEAQSKVVRWNILDTGSRIDGRDVKTVRSIVSEVGVLPRAHGSSLFTRGETQALVVATLGTGEDEQFIDALEGTYKERFLLHYNFPPYSVGETGRMGSPGRREIGHGKLAWRAIRPVLPPAHEFPYTIRVVSEITESNGSSSMASVCGGSLSLMDAGVPLRRPVAGIAMGLILEGERFAVLSDILGDEDHLGDMDFKVAGSEEGITSLQMDIKIAGITEEIMKIALAQAKDGRAHILGEMSKALTAARPELGEYAPRIETMQIPTDKIRDVIGTGGKIIREIVEKTGAKINIEDTGIVKIASSDGKAIKAAYNWIRSIVAEPEAGTIYDGTIVKIMEFGAFVNFFGAKDGLVHISELAAQRVAKVGDVVKEGQKVKVKFLGADERGKIRLSMKVVDQETGEDLTEKLKAERAERGEPEREERSDRGDRGDRGPRRDRGERRRESSGE | failed |
| MTTIYLVRHGQASFGKANYDELSENGQAQATILGQYLKEILKEQPYVIAGTMKRHLQTAQGALKECFPDTHIYTHAGWNEFNHQQVFANYEPRFKQPELLKQDVAKEQNPRAYLAKIFESAISRWTDGEFHHEYEESWPKFKQRVEIALKMLCDELAQTKPRYAVVFTSGGVISVIAGKILELNPNRTFALNWAITNTSLTTLRLVGNEPQLLSLNEHHFIKVVNPALLTWI | failed |
| MGTTVMVPIYTSTAAASPYSINLASMPPKTVLSKGDEEIAAIALPRQPKFYDLKTADGIPYSHIALLHSNNVLATTVQQTCIRYRDESTVCQFCAIEKSLDAGRTITRKLPEQLAEVTEAAVRLDGIEQVIMTTGTPNSGDRGAAYLTKCAAAIKARVNIPIQAQCEPPDDFIWFERMKAAGVDSLGMHLEAVDPDVRAKIMPGKAEVPVSYYYEAYEAAVKVFGWGQVSTYLLAGLGDSFETLVEASEKLVNMGVYPFVVPFVPISETPLANHPAPDSDFMFALYQRVGTIIKQSQISSVDMKAGCAKCGACSALSTFAKLEHHHHHH | failed |
